Experimental data: paper PMC13186710

Key:
[1] = molecular target: Nonphosphorylated, SAG21k-bound FLAG-tagged mouse Smoothened (residues 64-674) S570C (mouse) (UniProt P56726); assay: cross-linking; disulfide trapping with 5 mM diamide, 1 h, room temperature; FLAG-SMO (4 ul of 12.5 uM) and PKA-C (4 ul of 6.25 uM) in 10 ul, 20 mM HEPES, 150 mM NaCl, 0.025% GDN, SAG21k, 1 mM ATP, 10 mM MgCl2, pH 8.0; non-reducing SDS-PAGE
[2] = molecular target: GRK2-phosphorylated FLAG-tagged mouse Smoothened (residues 64-674) I573A F577A R580A (mouse) (UniProt P56726); assay: SPR; biotinylated SMO nanodiscs captured (Biotin CAPture kit, 250-350 RU); myr-PKA-Cα-K7C 16 nM-1 uM injected; 20 mM MOPS pH 7.0, 150 mM NaCl, 100 uM EDTA, 1 mM ATP, 10 mM MgCl2, 0.001% P20, 25 °C; Biacore 3000; steady-state analysis
[3] = molecular target: GRK2-phosphorylated FLAG-tagged mouse Smoothened (residues 64-674), wild type (mouse) (UniProt P56726); assay: as above

Row | Substance | percent of the disulfide trapping that depends on SMO phosphorylation (against pSMO S570C) [1] | Kd [2] | Kd [3]
1 | Mouse PKA-C G136C in the minimal-cysteine ((−)Cys, C199A) background (enzyme) | 54% |  | 
2 | Myristoylated PKA-Cα K7C (enzyme) |  | 222 nM | 82 nM
